Literature values, collected in publication PMC3159772.

Legend:
NTS1 (Homo sapiens) = NTS1 (Homo sapiens) (UniProt P30989)
NTS2 (Homo sapiens) = NTS2 (Homo sapiens) (UniProt O95665)
UniProt O95665, sequence (O95665 whole entry): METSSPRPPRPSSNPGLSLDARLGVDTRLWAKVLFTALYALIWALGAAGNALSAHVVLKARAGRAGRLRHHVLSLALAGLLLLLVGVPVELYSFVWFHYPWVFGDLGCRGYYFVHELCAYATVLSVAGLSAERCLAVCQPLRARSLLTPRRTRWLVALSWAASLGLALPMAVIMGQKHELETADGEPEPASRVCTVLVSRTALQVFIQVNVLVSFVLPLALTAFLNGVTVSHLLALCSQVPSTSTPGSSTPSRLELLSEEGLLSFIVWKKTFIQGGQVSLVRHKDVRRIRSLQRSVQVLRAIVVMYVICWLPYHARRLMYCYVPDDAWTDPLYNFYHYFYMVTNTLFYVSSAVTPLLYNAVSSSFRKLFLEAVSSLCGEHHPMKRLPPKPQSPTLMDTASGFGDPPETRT

UniProt P30989, sequence (P30989 whole entry): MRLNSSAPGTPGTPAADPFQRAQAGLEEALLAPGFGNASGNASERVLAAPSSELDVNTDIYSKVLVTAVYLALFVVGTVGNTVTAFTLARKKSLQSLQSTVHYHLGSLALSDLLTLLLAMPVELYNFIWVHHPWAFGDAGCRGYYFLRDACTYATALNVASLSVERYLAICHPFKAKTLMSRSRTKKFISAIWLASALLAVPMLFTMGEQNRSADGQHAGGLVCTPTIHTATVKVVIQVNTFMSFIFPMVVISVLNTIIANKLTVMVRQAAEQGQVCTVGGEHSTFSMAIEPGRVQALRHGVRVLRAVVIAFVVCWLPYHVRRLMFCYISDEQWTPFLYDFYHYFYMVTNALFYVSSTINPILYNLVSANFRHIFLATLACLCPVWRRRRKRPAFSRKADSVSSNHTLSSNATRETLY

- Kd (NTS1 (Homo sapiens)): 3.1 nM
- Kd (NTS2 (Homo sapiens)): 2.1 nM
Substance: NT69L (from UniProt P30990)
